# From the DeepSol protein solubility set
# Assay: soluble on expression in E. coli; label from the status in PepcDB or PDB records
row,Sequence,soluble on expression in E. coli
1,AHHHHHHGSDSIIVYVSIHHKNTEKVAKVIAEVLNARLVKPWEIKPEELLKYDLIGFGSGIYYWKHHRALFELINKLPKVEGKKAFIFSTAGLNIPFINHRKLRKVLREKGFEIVGEFSCRGWDTNGWLAEIGGLNKGHPNEKDLENARKFAENLKASI,soluble
2,AHHHHHHGSEFFEVLKKRRSIRRFQDKPVPRELIEKLLEAAFLSPSSYNKRPCHFIVVDDREKLEALSKSKLGASGLKTAPVAIVVTADESKSDVWIEDASIAAEHIHLASYALGLASFWVQIRNRMHNETKTAEEYVRELLNIPENYRVLCIIGVGYPAEDKPPHGNEVFEWEKVSYNEFGKRFK,soluble
3,AHHHHHHGSGMKYLIKLKYIKPAQLAVNREQKLAEFYPIFEDGTLGRVEAKARVFLPEYSDFAKGLGFEVKKRRMITEDDYAYLRAMVYGVVMGVLRNPGDWRRLEERVLEMEPIELRYWASKFRNAYWKYKNMRKLMFLARRFMEVEMI,not soluble
4,AHHHHHHGSGSSRTFRTSWADLGNLAKSIPPHHHLNPFEGKWNKKLSKKAIIMWQINVNDNRKFLSDC,not soluble
5,AHHHHHHGSHKLKVSVSFSYGKKEIVKNVEFEGKVGEIIAIIGPNGAGKSTLLKCIAGILKPRGIIEYNGIDLTKLKPKERAKIVGYVPQSSYPEFAFTVEEFVELGTYAGKGDVDEAIRRVGLWEKRKEFITNLSGGEYQLTLIARALAQGGDIMLLDEPTSHLDINHTREIMEILQELKKEKLIIAVFHDLNLAINYADEIIVLKNGETAWKGKSKEISEEVIEATYGIKPRIVREDGIVAVLP,soluble
6,AHHHHHHGSILDVRGLKPPQPTLMILENLGKLKIGETLEVLGDKPFVDIIPKLEEAGYQVELNKVGEFFVLKVTKTEGSKELKMEVEECDEELKEITEDTNVAKLLKAYPESLDILVKYGFSPLQNPVLRKTLARTVTLKQAKKLIGMSDERFEEMMKELKKLEKR,soluble
7,AHHHHHHGSKILYPTDFSEVSQKALTECVPSIILGIGEGSELILLHVVDITASEIGALELAEVDKEELNNLASQLREKGIKVKPIVRIGIPSLEISEVAKEENVDLIIIPSKGENILRQMLLGSTASNLARITHKPVLLLRYEVENGEIKSLQDCSRIFEKPLVALDLSKCSEKIIETIKDLPGVREAVLFHVVDYGKVEELENNIKNAKEKLSKYGKLLPWKTKIEVQAGIASKGIIGAAIDNNVTLVVIGKKGRSVLKDLLLGSTAERVIRDCKLPTLLIPCE,not soluble
8,AHHHHHHGSKIPDDVRKDIPLTQEVIYFDNTATSLTPKPVIEAMDEYYLKYRANVHRGVHRLSQMATQKYEESRKVVADFINAKFEEIVFTKNTSESLNLVALGLEHTFKKGDKIVTTPYEHHSNLLPWQRLAKKLGLKLEFIEGDDEGNLDLSDAEKKIKGAKLVAVQHVSNALGVIHEVEELGRMAKEEGAIFVVDAAQSVGHMEVDVKKLNADFLAFSGHKGPMGPTGIGVLFISEEYFDVFDPPLIGGGTIEDVDLCCYKLTEPPERFEAGTPNIGGAIGLAAGIKYIEKIGIEKIEKQERKLVKRTTEGLDELEIPWYGPRNLDKHAGVVSFNVPPLHPHDVAAVLDEHKIMVRSGHHCALPVMKKLGINGTVRASFHVYNSVEEVEIFLGVLEDLVRKIRGAL,soluble
9,AHHHHHHGSKYDVVVVGSGVAGPIVARDVAKAGFSVLLVDKKPAIGTPKQCAEGINVNVFKEFDIPYDKRFINREIYGARIYSPSGYTAELRYDKVSGVILERKVFDKMLAYYAAKAGADVWARTEVIDLLRKEGKIMGVKAKHEGELVEIEAKIIVAADGVESTVARLAGINTYAPPHEFDSAYEYEMIIEGYDPDLIHLWFGNEIAPRGYVWVFPKDEDRANVGIGINSDNEKTAKYYLDKWLKENNIPTKKILEINVGLVPVGGFVRELVKENVAVVGDAARQVNPVHGGGMYEAMKAANILAKWIVKALEEENLELLKNYTKEWWEVEGPKMERLLKLRRAMEKLTDEDIDVFVQLLGGTDLEKLAGGNYFEVVKALMKHPKVLMSKRRLEILKALL,soluble
10,AHHHHHHGSPITKVTRNYQITIPAEIRKALGIKEGELLEVRLENGKIIIERLKKERKTLKLGKKLTLEEIEKAIEEGMKQCMQMHAVIDTNVLIYDTFSDSEFHKESRSLLNSLDRWYIPSIVLQEYVWFFRSQGFSSREAKIMLSEYISDPRFRGLVEDHNVILRAIDILERENLSLSRFNDMIILVHAIEKGTLATFDQKLRKLARKLSVEILP,soluble
11,AHHHHHHGSPKIGIIGGSGVYGIFEPKETVKVHTPYGRPSAPVEIGEIEGVEVAFIPRHGKYHEFPPHEVPYRANIWALHELGVERVIAVNAVGSLKEEYKPGDIVIIDQFIDFTKKREYTFYNGPRVAHISMADPFCPELRRIFIETAKELNLPVHEKGTYICIEGPRFSTRAESRMFRQFADVIGMTLVPEVNLARELGMCYVNISTVTDYDVWAEKPVDAQEVLRVMKENEEKVQKLLKRAIPKIPEERKCGCADVLKTMFV,not soluble
12,AHHHHHHGSVSKPHGGKLIRRIAAPRTRERILSEQHEYPRVQIDHGRAIDLENIAHGVYSPLKGFLTREDFESVLDYMRLSDDTPWTIPIVLDVGEPTFEGGDAILLYYENPPIARMHVEDIYTYDKKEFAVKVFKTDDPNHLGVARVYSMGKYLVGGGIELLNELPNPFAKYTLRPVETRILFKERGWKTIVAFQTRNVPHLGHEYVQKAALTFVDGLFINPVLGRKKKGDYKDEVIIKAYYLIMKYCSNTTHHAIMRKTSTSSQT,not soluble
13,AHHHHHHGSYLSIGTLLHRPLSSNLCIAYEIATPAIYLSPGYFTTFPATYDEILLIVSTSLAFPYVWV,soluble
14,AHHHHHHHRSDAAVIVVGAGPAGMMLAGELRLAGVEVVVLERLVERTGESRGLGFTARTMEVFDQRGILPRFGEVETSTQGHFGGLPIDFGVLEGAWQAAKTVPQSVTETHLEQWATGLGADIRRGHEVLSLTDDGAGVTVEVRGPEGKHTLRAAYLVGCDGGRSSVRKAAGFDFPGTAATMEMYLADIKGVELQPRMIGETLPGGMVMVGPLPGGITRIIVCERGTPPQRRETPPSWHEVADAWKRLTGDDIAHAEPVWVSAFGNATRQVTEYRRGRVILAGDSAHIHLPAGGQGMNTSIQDAVNLGWKLGAVVNGTATEELLDSYHSERHAVGKRLLMNTQAQGLLFLSGPEVQPLRDVLTELIQYGEVARHLAGMVSGLEITYDVGTGSHPLLGKRMPALELTTATRETSSTELLHTARGVLLDLADNPRLRARAAAWSDRVDIVTAVPGEVSATSGLRDTTAVLIRPDGHVAWAAPGSHHDLPMALERWFGAPLTG,soluble
15,AIAASSTDQNLMDLSDKDTREKLSFWDRRVDPMAPLTDRQTDSILELRAAAEETLLPAELPIEDICSLSSRSLRSSFTAALPESTEEVLLQGFQMLELHNHRIETAQQFFSWFSKLQVQMDQDEASKYRKTRDVLNGYQEQCDAILNDVNTALDHLDSLQKQYLFVSTKTGTLHEACEQLLKEQSELVDLAESIQEKLSYFNELENINTKLNSPTLSVNSEGFVPMLSKLDECIEYVSSHPNFKDYPVYLTKFKQCLSKAMQLIKSHTVNTLQNLTGQLSKRDPLGAPSA,not soluble
16,AIADFSENASGIPAEELAFPEIIELNVGGQVYITRYLTLTSVPDSLLWKMFSQKSSKDLARDTKGRFFIDRDGFLFRYILDYMRDQQLVLPEHFPEQGRLQREAEFFNLPELVQLLAPKISKQNTLGDDGCQTDQDESSPGANITCNLSSLGAYSSLGAATADGQRSGFITIGCRGSYTLGRDCQTDAKFRRVARIMVCGKTSLAKEVFGETLNESHDPDRQPDRYTSRYYLKFTSLEQAFDRLADAGFHMVACNSTGTCAFAHVQTDDKIWTSYNEYVFYRE,soluble
17,AIAPDESAQVRFLIVGRTGWIANMVAELLEQRGERYAFASFRLEQREACELELDALRPQRVLNCAGVTGRPNVDWCEDHRRETVRSNVLGVLNLADCCASRGIHLTNFATGCLYHYDDGEHRPTAEGGRPFTEDDPPNFFGSYYSRTKAMVEELLRSAFDNVLILRLRMPVSDDLSPRSFVAKIARYEKVVNIPNSMTVLTELLPVALDMSERGLTGVYNFTNPGSISHNEVLELYRKYIDPKFQWKNFTLEEQAKILKAGRSNCELDVRKLLRDNPGAQIREVHAAMEEVFRRMQAKGVKPLAAP,soluble
18,AIARGHGTYMDEDRLTASVAGQVERVNKLICVKPLKTRYNGEVGDVVVGRITEVQQKRWKVETNSRLDSVLLLSAVNLPGGELRRRSTQDELAMRDYLQEGDLISAEVQSIFSDGALSLHTRSLKYGKLGQGVLVYVSPSLVKRQKTHFHNLPCGASLILGNNGYVWLSPTPALQEEQAGGFYTSMEPVSLSDREVVSRLRNCLLALANQKVLLFDTSVLYCYEASLQHQIKDILKPEIMEEIVLETRQRLMEHEG,soluble
19,AIAVQKLENIPALVHLKEKNIISIRVFLQGRSIVGIQLNYNDNEDGQVYGSTAGKEMVARLSKEEHIIGVEGTYNPSALTQIIFTTNQPRQLMVGYHVGNYQYSSYPDDPSLVLKGACVSWRAGGIKSILFLWGSENSSCVKYGHSG,soluble
20,AIHAVCVLKGDSPVTGTIHLKEEGDMVTVTGEITGLTPGKHGFHVHEFGDNTNGCTSAGGHFNPHGKEHGAPEDENRHAGDLGNVVAGEDGKAVINMKDKLVKLTGPDSVIGRTLVVHVDEDDLGRGGHEQSKITGNAGGRLACGVIGITKE,soluble
21,AINQANRSVCITTPYFVPSADLLATLKMTAQRGIKVDIIIPKKNDSLMVQWASRAFYGELLEAGVQIHEFDGGLLHTKSVVIDQQFCLVGTVNLDMRSLWLNFELTLAVDDLEFTQQMHWLQQQYIDQSHSVVYAEWEQRPWYNRFLERVFYLFNPLL,not soluble
22,AKDDKVTVLSIERGNKLVYLEKLGLRGDQFYYKIERIRESNGVVYIYHTSYIPEQYINANYPNLEYYSSIYNRFKLDYHIHMNDEHFEEINEIVFPTPEHAASVLGVDEQFPTVLQTKITKLESTGQVLEYSETYKRSDYYKIKFISCDRDH,not soluble
23,AKGSTNHRALTGVIFEPFEEVKKELDLVPTVPQASLARQKYVDESESAVNEQINVEYNVSYVYHAMFAYFDRDNVALRGLAKFFKESSEEEREHAEKLMEYQNKRGGKVKLQSIVMPLSDFDHADKGDALHAMELALSLEKLTNEKLLNLHSVATKNGDVQLADFVETEYLGAQVEAIKRISEYVAQLRRVGKGHGVWHFDQMLLHEGGDAA,soluble
24,AKKIGLFYGTQTGKTESVAEIIRDEFGNDVVTLHDVSQAEVTDLNDYQYLIIGCPTENIGELQSDWEGLYSELDDVDFNGKLVAYFGTGDQIGYADNFQDAIGILEEKISQRGGKTVGYWSTDGYDFNDSKALRNGKFVGLALDEDNQSDLTDDRIKSWVAQLKSEFGL,soluble
25,AKLLPKLQKQNLSDSAQQIAQERGLGNSSQRKVYLPIIRAYRVGPELIDWTDGKNLRELGIYRQTGCYIERIRRNGILAHPDGDAILQEGDEIALVGFPDSHARLDPSFRNGKEVFDRNLLDLRIVEEEIVVKSDAIAGKRLSDLNLSEFGCFLNRVVRAQIEMPMDLDIVLAKGDVLQVSGEKSRVHGLAEKIGFISIHSQMAD,not soluble
